Values joined by “and” are separate entries in the source; they are usually repeats but may differ in a detail not shown here. Equal entries are not always repeated.
Key:
pm2 [1] = molecular target: T1, pm2 (human, sulfated tyrosine(s) among Tyr 15, Tyr 16, Tyr 17; marked only by underlining, lost in the text); test: ELISA on coated peptide
Procedure: (§1) The specific binding properties of antibodies were evaluated by ELISA with coated CCR8 related peptides (500 ng/mL) in carbonate/bicarbonate buffer. Different peptides were used as described in Table 1 (see Example 1). Each anti-CCR8 mAb was tested at 1 μg/mL then diluted at 1/10. After an incubation at room temperature during 90 min, unbound mAbs were removed by washings. […] After washings, 3,3′,5,5′-tetramethylbenzidine (TMB) (Interchim, Montlugon, France) was added for 15 min. Then the optical density (OD) was determined by using a multiplate reader (Tecan, Lyon, France) and correlated with mAb reactivity on the panel of coated peptides.

pm1 [2] = molecular target: T2, pm1 (human, sulfated tyrosine(s) among Tyr 15, Tyr 16, Tyr 17; marked only by underlining, lost in the text); test: ELISA on coated peptide
T2 sequence (peptide, as listed by the source): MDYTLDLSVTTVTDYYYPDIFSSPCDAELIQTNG
Procedure: as §1

pm4 [3] = molecular target: T3, pm4 (human, sulfated tyrosine(s) among Tyr 15, Tyr 16, Tyr 17; marked only by underlining, lost in the text); test: ELISA on coated peptide
T3 sequence (peptide, as listed by the source): as above
Procedure: as §1

human CCR8 [4] = molecular target: T4, human CCR8 (human, UniProt P51685 1-355); test: cell-based or functional assay
pm5 = pm5 (human, sulfated tyrosines at Y15 and Y17); test: ELISA on coated peptide [cont.]
Chain of pm5 (human, sulfated tyrosines at Y15 and Y17) (peptide, as listed by the source): as above
In short: (§2)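 Binding is scored by optical density: plates carry 500 ng/mL peptide in carbonate/bicarbonate buffer, receive mAb at 1 μg/mL or diluted 1/10 for 90 min at room temperature, then TMB for 15 min.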

pm6 = pm6 (human, sulfated tyrosines at Y16 and Y17); test: ELISA on coated peptide [cont.]
Chain of pm6 (human, sulfated tyrosines at Y16 and Y17) (peptide, as listed by the source): as above
In short: as §2

pm8 = pm8 (human, sulfated tyrosines at Y15, Y16 and Y17); test: ELISA on coated peptide [cont.]
Chain of pm8 (human, sulfated tyrosines at Y15, Y16 and Y17) (peptide, as listed by the source): as above
In short: as §2

pm3 = pm3 (human, sulfated tyrosine at Y17); test: ELISA on coated peptide [cont.]
Chain of pm3 (human, sulfated tyrosine at Y17) (peptide, as listed by the source): as above
In short: as §2

human CCR8 [5] = molecular target: T4, human CCR8; test: flow cytometry, human activated T cells
Procedure: (§3) Briefly, 1·10⁵ cells per well in a 96 well plate were incubated with a dilution of unconjugated anti-CCR8 mAb at 10 μg/mL then diluted at 1/3.33, 4 dilution points (during 30 min at 4° C.). […] To determine EC50 value, 8 concentrations of anti-CCR8 mAb were tested. Unbound antibodies were washed away with PBS (Invitrogen by Thermofisher Scientific, Illkirch-Graffenstaden, France) supplemented by 2% Fetal Bovine Serum (Invitrogen by Thermofisher Scientific, Illkirch-Graffenstaden, France) and 2 mM EDTA (Invitrogen by Thermofisher Scientific, Illkirch-Graffenstaden, France). Subsequently, cells are centrifuged (5 min at 400 g) and bound antibody is detected with F(ab′)₂-Goat anti-Mouse IgG (H+L) Cross-Adsorbed Secondary Antibody, Alexa Fluor 488 (dilution 1/500) (Invitrogen by Thermofisher Scientific, Illkirch-Graffenstaden, France) or with F(ab′)₂-Goat anti-Human IgG Fc Secondary Antibody, PE (Invitrogen by Thermofisher Scientific, Illkirch-Graffenstaden, France) (dilution 1/1000) at 4° C. for 30 min. Detection reagent is washed away and cells are centrifuged (5 min at 400 g) and resuspended in 30 μL PBS. Bound detection antibody is quantified on a MacsQuant16 (Miltenyi, Gladbach, Germany) (B1 or B2 channel, 5000 events per acquisition).
(§4) Binding characteristics of anti-CCR8 mAb cellular reactivity was further investigated by testing their binding to activated T cells.

human CCR8 [6] = molecular target: T4, human CCR8; test: flow cytometry, human activated T cells pre-incubated with 200 nM hCCL1
Procedure: as §3, §4

human CCR8 [7] = molecular target: T4, human CCR8; test: flow cytometry, HUT78 cells (native CCR8)
Procedure: The same staining protocol was applied on human CCR8 transfected CHO cell line versus wild type CHO cell line, cutaneous T cell lymphoma HUT78 cell line and human activated T cell model.
as §3

human CCR8 [8] = molecular target: T4, human CCR8; test: cell-based or functional assay; remark: listed apart in the source
human CCR8 [9] = molecular target: T4, human CCR8; test: competition HTRF on HEK-293 cells with hCCR8; blocked ligand CCL1-AF647 [cont.]
human CCR8 [10] = molecular target: T4, human CCR8; test: cell-based or functional assay; remark: listed apart in the source
human CCR8 [11] = molecular target: T4, human CCR8; test: cell-based or functional assay; remark: listed apart in the source
pm2 [12] = molecular target: T1, pm2; test: ELISA on coated peptide [cont.]
In short: as §2

pm1 [13] = molecular target: T2, pm1; test: ELISA on coated peptide [cont.]
In short: as §2

pm4 [14] = molecular target: T3, pm4; test: ELISA on coated peptide [cont.]
In short: as §2

pwt1 = molecular target: T5, pwt1 (human); test: ELISA on coated peptide [cont.]
T5 construct: also called unmodified peptide
T5 sequence (peptide, as listed by the source): as above
In short: as §2

CCR8 SNAP-tag = CCR8 SNAP-tag (human, UniProt P51685 1-355, SNAP-tag labelled with Lumi4-Terbium); test: cell-based or functional assay
human CCR8 [15] = molecular target: T4, human CCR8; test: flow cytometry, hCCR8 transfected CHOK1 cells
human CCR8 [16] = molecular target: T4, human CCR8; test: competition flow cytometry on hCCR8 transfected CHO cells; blocked ligand CCL1-AF647 [cont.]
human CCR8 [17] = molecular target: T4, human CCR8; test: cell-based or functional assay; remark: listed apart in the source

T1 sequence (peptide, as listed by the source): as above

Row | Binder | binding result (pm2 [1]) | binding result (pm1 [2]) | binding result (pm4 [3]) | hCCL1 (100 nM) residual response, Protocol #2, mAb 0.08 µg/mL (human CCR8 [4]) [%] | hCCL1 (100 nM) residual response, Protocol #2, mAb 0.4 µg/mL (human CCR8 [4]) [%] | hCCL1 (100 nM) residual response, Protocol #2, mAb 10 µg/mL (human CCR8 [4]) [%] | hCCL1 (100 nM) residual response, Protocol #3, mAb 0.05 µg/mL (human CCR8 [4]) [%] | hCCL1 (100 nM) residual response, Protocol #3, mAb 0.5 µg/mL (human CCR8 [4]) [%] | hCCL1 (100 nM) residual response, Protocol #3, mAb 5 µg/mL (human CCR8 [4]) [%] | binding result (pm5) | binding result (pm6) | binding result (pm8) | binding result (pm3) | % of labelled cells (human CCR8 [7]) [%] | IC50 (Gi2 BRET, pH 6.5) (human CCR8 [8]) | IC50 (Gi2 BRET, pH 7.4) (human CCR8 [8]) | IC50 (read off the curve) (human CCR8 [9]) [µg/mL] | % positive cells (human CCR8 [15]) [%] | MFI fold change to isotype ctrl (human CCR8 [15]) [fold] | IC50 (read off the curve) (human CCR8 [16]) [µg/mL] | other results
1 | 3-77 (antibody, human IgG1, kappa, humanized, human IgG1 kappa) heavy: not shown light: DIVMTQAAPSLSVTPGESASISCTSSKSLLHSNGNTYLYWFLQKPGQSPQLLIYRMSNLASGVPDRFSGSGSGTAFTLKISRVEAEDVGVYYCMQHREYPFTFGSGTKLEIKRTVAAPSVFIFPPSDEQLKSGTASVVCLLNNFYPREAKVQWKVDNALQSGNSQESVTEQDSKDSTYSLSSTLTLSKADYEKHKVYACEVTHQGLSSPVTKSFNRGEC | binds | binds | binds | 62 | 38 | 30 | 94 | 63 | 39 | binds | binds | binds | binds | 23 | 0.018 µg/ml and 0.117 nM | 0.029 µg/ml and 0.194 nM | ~0.1 | – | – | – | % of labelled cells (human CCR8 [5]): 79%; % of labelled cells (human CCR8 [6]): 64%
2 | 3-78 (antibody, human IgG1, kappa, humanized) heavy: not shown light: DIVMTQAAPSLSVTPGESASISCTSSKSLLHSNGNTYLYWFLQKPGQSPQLLIYRMSNLASGVPDRFSGSGSGTAFTLKISRVEAEDVGVYYCMQHREYPFTFGSGTKLEIKRTVAAPSVFIFPPSDEQLKSGTASVVCLLNNFYPREAKVQWKVDNALQSGNSQESVTEQDSKDSTYSLSSTLTLSKADYEKHKVYACEVTHQGLSSPVTKSFNRGEC | binds | binds | binds | 74 | 54 | 40 | 89 | 63 | 51 | binds | binds | binds | binds | 32 | 0.025 µg/ml and 0.165 nM | 0.035 µg/ml and 0.232 nM | ~0.1 | – | – | – | ADCP % Max of phagocytosis, monocyte-derived macrophages Donor 9 (human CCR8 [10]): 9.65%; ADCC % Max lysis, NK cells Donor 1 (human CCR8 [11]): 30%; ADCC % Max lysis, NK cells Donor 2 (human CCR8 [11]): 28%; ADCC EC50, NK cells Donor 1 (human CCR8 [11]): 6.43 pM; ADCC EC50, NK cells Donor 2 (human CCR8 [11]): 0.42 pM
3 | 3-81 (antibody, human IgG1, kappa, V domains shown, humanized, human IgG1 kappa) VH: QVQLQQSGPEVVKPGASVKVSCKTSGYTFTEYTIHWVRQSHGQSLEWVGGINPNNGNTRYDQKFKGRVTITIDKSSSTAYMELRSLTSEDTAVYYCARVARSSGSGPYAMDYWGQGTTVTVSS VL: DVVMTQSPLSLPVTLGDQASISCRCSQSLLHTNGDTYLHWYLQRPGQSPRLLIYKVSNRFSGVPDRFSGSGSGTDFTLKISRVEAEDVGVYFCSQSTHVPYTFGGGTKVEIKR | – | – | – | 77 | 66 | 41 | 73 | 52 | 37 | binds | binds | binds | binds | 88 | 0.018 µg/ml and 0.117 nM | 0.034 µg/ml and 0.224 nM | – | – | – | – | binding result (pm2 [12]): binds; binding result (pm1 [13]): binds; binding result (pm4 [14]): binds; binding result (pwt1): binds; EC50 (human CCR8 [7]): 200 pM; % of internalization at 1 µg/ml mAb (HTRF) (CCR8 SNAP-tag): 44%; % of internalization at 10 µg/ml mAb (HTRF) (CCR8 SNAP-tag): 36%
4 | 3-43 (antibody, V domains shown) VH: QVQLQQPGAELVKPGASVKMSCKATGYTFTGYNMHWVKQTPGQGLEWIGAISPGKGDTSYNLKFKGKATLTTDKSSSTAYMQLSSLTSADSAVYYCARSGGTPFAYWGQGTLVTVSA VL: DVVMTQTPLSLPVSLGDQASISCRSSQSLVHSNGDTYLYWYLQKPGQSPKLLIYKVSNRFSGVPDRFSGSGSGTDFTLKINRVEAEDLGVYFCSQSTHVPYTFGGGTKLEIK | – | – | – | – | – | – | 102 | 98 | 84 | binds | binds | binds | binds | – | 0.678 µg/ml and 4.52 nM | 3.43 µg/ml and 22.9 nM | – | 76.2 | 8.37 | ~0.7 | Top plateau value (% of hCCL1 100 nM) with 5 µg/mL mAb, Protocol #3 (human CCR8 [17]): 2880%
5 | 3-46 (antibody, V domains shown) VH: EVQLVETGGGLVQPKGSLKLSCAASGFTFNTNAMNWVRQAPGKGLEWVARIRSKSNYYATYYADSVKDRFTISRDDSQSMLYLQMNNLKTEDTAMYYCVRGREMGNYYSMDYWGQGTSVTVSS VL: DIVMTQAAPSVPVTPGESVSISCRSSKSLLHSNGNTYLYWFLQRPGQSPQLLIYRMSNLASGVPDRFSGSGSGTAFTLRISRVEAEDVGVYYCMQHLEYPFTFGSGTKLEIK | – | – | – | 60 | 35 | 21 | 69 | 39 | 38 | binds | binds | binds | binds | – | 0.019 µg/ml and 0.125 nM | 0.011 µg/ml and 0.075 nM | – | 64.7 | 5.63 | ~0.3 | Top plateau value (% of hCCL1 100 nM) with 5 µg/mL mAb, Protocol #3 (human CCR8 [17]): 149%
